Our source for the stoichiometry N values is article PMC5221731.

The target of this assay is N-terminally hexahistidine-tagged wildtype Chinese hamster BiP, unmodified (non-AMPylated) (Chinese hamster) (UniProt G3I8R9). In words: native gel or EMSA. Background: Mobility shift assays separate free from complexed probe on a gel.

For “N-terminally hexahistidine-tagged wildtype Chinese hamster BiP, unmodified (non-AMPylated) (from UniProt G3I8R9 19-654) (natural protein)”, the stoichiometry N (commonly a count of units in the complex or per binding partner) was 2.
